This is an account of results in patent US20180057581A1 (MorphoSys, published 2018).

What all share (experiment): MSD specificity profiling, coated protein
One test has as its target Serum albumin (human) (human, UniProt P02768 25-609). The method, then: (§1) For this specificity profiling test the different proteins and controls were coated on two 384-well MSD plates with a concentration of 1 μg/ml at 4° C. over night. Plates were blocked with BSA and washed three times with PBS with 0.05% (v/v) Tween 20. Antibody samples were diluted to 100 nM and 10 nM in assay buffer (PBS with 0.5% (w/v) BSA, 0.05% (v/v) Tween 20). […] Samples and controls were incubated for three hours at room temperature. The plates were washed three times and 30 μl detection antibody (ECL-labeled anti-human Fab) were added per well and incubated for 1 h. After washing, MSD Read Buffer T with surfactant was added and electrochemiluminescence signals were detected using a Sector Imager 6000 (Meso Scale Discovery, Gaithersburg, Md., USA).

For the next test, the target named is T1, Fibrinogen (bovine) (bovine, UniProt P02672 20-615; P02676 1-468; P12799 25-444).
T1 sequence (looked up) 1: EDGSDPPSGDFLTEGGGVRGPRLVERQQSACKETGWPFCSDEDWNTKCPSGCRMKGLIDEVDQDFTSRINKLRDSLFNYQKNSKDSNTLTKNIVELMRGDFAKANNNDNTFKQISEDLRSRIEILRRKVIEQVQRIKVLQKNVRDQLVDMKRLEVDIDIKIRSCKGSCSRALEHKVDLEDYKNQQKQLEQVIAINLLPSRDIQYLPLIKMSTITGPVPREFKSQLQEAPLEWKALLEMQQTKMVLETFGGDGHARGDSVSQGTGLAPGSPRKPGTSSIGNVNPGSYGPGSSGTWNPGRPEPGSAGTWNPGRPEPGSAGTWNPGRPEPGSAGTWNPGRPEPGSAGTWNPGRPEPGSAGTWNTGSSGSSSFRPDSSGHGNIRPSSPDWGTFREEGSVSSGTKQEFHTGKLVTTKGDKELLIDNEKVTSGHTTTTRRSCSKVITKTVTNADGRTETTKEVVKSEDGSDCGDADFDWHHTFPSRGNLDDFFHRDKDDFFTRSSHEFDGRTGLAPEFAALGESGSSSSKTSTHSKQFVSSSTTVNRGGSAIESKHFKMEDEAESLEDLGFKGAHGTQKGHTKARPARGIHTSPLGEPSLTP
T1 sequence (looked up) 2: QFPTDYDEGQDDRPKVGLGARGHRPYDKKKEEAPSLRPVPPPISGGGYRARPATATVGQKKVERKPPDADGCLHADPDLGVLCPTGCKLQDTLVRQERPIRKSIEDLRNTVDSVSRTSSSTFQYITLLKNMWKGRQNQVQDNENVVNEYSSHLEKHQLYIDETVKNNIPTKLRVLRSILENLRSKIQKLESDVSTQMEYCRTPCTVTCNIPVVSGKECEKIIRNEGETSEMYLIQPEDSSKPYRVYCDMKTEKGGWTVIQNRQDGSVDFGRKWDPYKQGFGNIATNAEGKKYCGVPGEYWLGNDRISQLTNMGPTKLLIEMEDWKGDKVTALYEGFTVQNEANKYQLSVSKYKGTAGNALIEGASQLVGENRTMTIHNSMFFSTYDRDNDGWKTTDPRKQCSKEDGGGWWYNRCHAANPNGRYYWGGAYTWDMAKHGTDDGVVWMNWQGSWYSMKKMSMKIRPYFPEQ
T1 sequence (looked up) 3: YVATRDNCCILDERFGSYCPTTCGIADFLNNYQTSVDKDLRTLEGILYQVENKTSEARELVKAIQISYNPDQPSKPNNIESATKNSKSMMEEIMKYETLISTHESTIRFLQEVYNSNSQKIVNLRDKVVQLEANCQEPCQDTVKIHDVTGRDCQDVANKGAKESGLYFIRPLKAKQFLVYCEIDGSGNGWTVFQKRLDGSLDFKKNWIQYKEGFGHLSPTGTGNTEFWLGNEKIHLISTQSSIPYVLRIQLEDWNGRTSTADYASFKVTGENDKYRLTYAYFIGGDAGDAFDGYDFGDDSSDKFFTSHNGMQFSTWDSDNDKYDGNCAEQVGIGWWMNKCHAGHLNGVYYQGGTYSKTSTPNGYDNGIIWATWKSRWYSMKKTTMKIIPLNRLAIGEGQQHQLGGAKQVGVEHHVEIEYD
The method, then: as §1

The target of a further test is Antitrypsin (human) (human, UniProt P01009 25-418). The method, then: as §1
Sequence of Antitrypsin (human) (P01009 25-418 limits assumed): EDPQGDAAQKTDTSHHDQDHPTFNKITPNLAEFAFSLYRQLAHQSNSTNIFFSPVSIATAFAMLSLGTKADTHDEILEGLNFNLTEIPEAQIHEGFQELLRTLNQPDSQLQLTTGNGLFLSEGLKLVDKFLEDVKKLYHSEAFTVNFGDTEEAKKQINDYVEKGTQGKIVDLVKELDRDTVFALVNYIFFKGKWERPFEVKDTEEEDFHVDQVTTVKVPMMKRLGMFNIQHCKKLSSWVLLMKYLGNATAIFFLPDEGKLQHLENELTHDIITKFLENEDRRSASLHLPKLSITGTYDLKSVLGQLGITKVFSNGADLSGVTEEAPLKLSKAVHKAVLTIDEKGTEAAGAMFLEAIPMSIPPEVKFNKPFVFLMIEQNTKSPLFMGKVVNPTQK
A further test has as its target Lysozyme (chicken) (chicken, UniProt P00698 19-147). Here is the method:
as §1

The target of a further test is Pepsinogen (pork) (pork, UniProt P00791 16-385). Here is the method: as §1
Sequence of Pepsinogen (pork) (P00791 16-385): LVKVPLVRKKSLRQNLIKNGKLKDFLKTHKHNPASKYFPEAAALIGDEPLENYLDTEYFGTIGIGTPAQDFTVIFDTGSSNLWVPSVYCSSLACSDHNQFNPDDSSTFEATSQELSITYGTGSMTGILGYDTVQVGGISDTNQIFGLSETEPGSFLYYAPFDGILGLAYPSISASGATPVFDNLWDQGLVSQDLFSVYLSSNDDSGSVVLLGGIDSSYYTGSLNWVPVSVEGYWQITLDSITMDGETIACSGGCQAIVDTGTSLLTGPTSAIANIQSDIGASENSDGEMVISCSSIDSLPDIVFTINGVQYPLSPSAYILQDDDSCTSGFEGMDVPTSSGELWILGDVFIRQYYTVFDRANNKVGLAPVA
In another test the target is Cytochrome c (cow) (cow, UniProt P62894 2-105). Here is the method: as §1
Sequence of Cytochrome c (cow) (P62894 2-105 limits assumed): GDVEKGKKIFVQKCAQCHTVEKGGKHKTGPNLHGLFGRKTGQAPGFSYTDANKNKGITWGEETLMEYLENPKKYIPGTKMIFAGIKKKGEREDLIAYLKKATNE
The target of a further test is Myoglobin (horse) (horse, UniProt P68082 2-154). Here is the method:
as §1

The target in the next test is T2, Trypsinogen (cow) (cow, UniProt P00760 18-246).
T2 sequence (looked up): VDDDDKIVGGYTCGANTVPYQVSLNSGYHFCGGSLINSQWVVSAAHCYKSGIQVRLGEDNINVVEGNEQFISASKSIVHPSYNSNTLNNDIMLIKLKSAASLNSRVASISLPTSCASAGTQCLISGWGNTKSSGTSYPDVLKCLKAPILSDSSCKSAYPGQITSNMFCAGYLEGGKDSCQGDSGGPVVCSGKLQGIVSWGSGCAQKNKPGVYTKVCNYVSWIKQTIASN
The method, then:
as §1

The target in another test is T3, RNase B (cow) (cow, UniProt P61823 27-150).
T3 sequence (looked up): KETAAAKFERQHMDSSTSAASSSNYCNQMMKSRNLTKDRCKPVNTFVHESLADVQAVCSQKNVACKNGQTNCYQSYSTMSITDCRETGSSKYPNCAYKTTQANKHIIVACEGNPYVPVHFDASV
Here is the method:
as §1

For the next test, the target named is T4, RNase A (cow) (cow, UniProt P61823 27-150).
T4 sequence (looked up): T3 sequence (looked up)
The method, then:
as §1

Sequence of Lysozyme (chicken) (P00698 19-147): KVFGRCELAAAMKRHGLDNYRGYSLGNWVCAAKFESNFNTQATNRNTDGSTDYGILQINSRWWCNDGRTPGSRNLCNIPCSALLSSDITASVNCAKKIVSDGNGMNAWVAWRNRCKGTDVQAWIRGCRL
Sequence of Myoglobin (horse) (P68082 2-154 limits assumed): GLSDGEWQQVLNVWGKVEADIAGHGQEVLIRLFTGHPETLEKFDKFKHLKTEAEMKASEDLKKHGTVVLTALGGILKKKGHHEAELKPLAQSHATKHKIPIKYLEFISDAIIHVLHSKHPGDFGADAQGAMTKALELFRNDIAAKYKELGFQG

B1: Camille (format not stated) (antibody, V domains shown)
VH: QVQLQQSGPGLVKPSQTLSLTCAISGESVSTSSAAWNWIRQSPSRGLEWLGRTYYRSKWKHEYAVSVKSRITINPDTSKNQFSLQLNSVTPEDTAVYYCARDRYYYSAFDYWGQGTLVTVSS
VL: QSALTQPASVSGSPGQSITISCTGTSSDVGGYNSVSWYQQHPGKAPKLLIYAVSNRPSGVSNRFSGSKSGNTASLTISGLQAEDEADYYCASYDERFTRVFGGGTKLTVLG
notes: also called Antibody Camille
With B1, the binding result in the test with Serum albumin (human) was “no binding (tested: 100 nM and 10 nM antibody)”; with Fibrinogen (bovine), “no binding (tested: 100 nM and 10 nM antibody)”; with Antitrypsin (human), “no binding (tested: 100 nM and 10 nM antibody)”; with Lysozyme (chicken) it was “no binding (tested: 100 nM and 10 nM antibody)”; with Pepsinogen (pork) it was “no binding (tested: 100 nM and 10 nM antibody)”; in the test with Cytochrome c (cow) it was “no binding (tested: 100 nM and 10 nM antibody)”. Also, the binding result with Myoglobin (horse) was “no binding (tested: 100 nM and 10 nM antibody)”; with Trypsinogen (cow), “no binding (tested: 100 nM and 10 nM antibody)”; in the test with RNase B (cow) it was “no binding (tested: 100 nM and 10 nM antibody)”; in the test with RNase A (cow), “no binding (tested: 100 nM and 10 nM antibody)”.
